These results are taken from patent publication US7192735B2, “Phosphopantetheinyl transferases and uses thereof” (President & Fellows of Harvard College, priority 1995, dated 2007).

For series [1], the system named is His6-PCP (peptidyl carrier protein domain of TycA). Nature of the series: [3H]-4'-phosphopantetheine transfer radioassay, His6-PCP substrate. The conditions noted are these: for phosphopantetheinylation of His6-PCP: 25 μM His6-PCP, 60 min at 37° C., FIG. 11.
For the next series, the target named is E. coli FAS apo-ACP (Escherichia coli, UniProt P0A6A8). As to conditions: for phosphopantetheinylation of ACP: 25 μM ACP, 60 min at 37° C., FIG. 11.
Chain of E. coli FAS apo-ACP (P0A6A8 2-78): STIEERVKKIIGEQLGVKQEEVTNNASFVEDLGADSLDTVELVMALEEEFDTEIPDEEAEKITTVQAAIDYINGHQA
The next series concerns the target T1, EntF (Escherichia coli, UniProt P11454).
T1 construct: made in house
Nature of the series: [3H]-4'-phosphopantetheine incorporation into EntF. Type of series: biochemical, E. coli. The conditions noted are these: for time course of modification of EntF: EntD 100 nM, ACPS and o195 at 15-fold higher concentrations, FIG. 14A; for phosphopantetheinylation of EntF: FIG. 12. As for the experimental part: A time course of EntD-catalyzed incorporation of radiolabel into EntF was performed.

In series [2] the target is T2, SrfB1 (Bacillus subtilis, UniProt Q04747).
T2 construct: hexa-histidine (His6, from pPROEX-1) (N); made in house; host or cells: E. coli AG1574 (plasmid pML 118)
Put plainly: [3H]-4'-phosphopantetheine incorporation into SrfB1. Type of series: biochemical. As to conditions: FIG. 12.
Target sequence in this assay (P39135 whole entry): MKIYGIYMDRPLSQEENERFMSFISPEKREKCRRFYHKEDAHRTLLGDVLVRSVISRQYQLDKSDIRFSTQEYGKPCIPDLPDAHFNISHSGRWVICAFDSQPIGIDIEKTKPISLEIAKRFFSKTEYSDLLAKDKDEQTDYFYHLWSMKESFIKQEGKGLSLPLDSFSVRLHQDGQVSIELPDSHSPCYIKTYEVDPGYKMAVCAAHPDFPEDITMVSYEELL
Target sequence in this assay (Q04747 92-1307): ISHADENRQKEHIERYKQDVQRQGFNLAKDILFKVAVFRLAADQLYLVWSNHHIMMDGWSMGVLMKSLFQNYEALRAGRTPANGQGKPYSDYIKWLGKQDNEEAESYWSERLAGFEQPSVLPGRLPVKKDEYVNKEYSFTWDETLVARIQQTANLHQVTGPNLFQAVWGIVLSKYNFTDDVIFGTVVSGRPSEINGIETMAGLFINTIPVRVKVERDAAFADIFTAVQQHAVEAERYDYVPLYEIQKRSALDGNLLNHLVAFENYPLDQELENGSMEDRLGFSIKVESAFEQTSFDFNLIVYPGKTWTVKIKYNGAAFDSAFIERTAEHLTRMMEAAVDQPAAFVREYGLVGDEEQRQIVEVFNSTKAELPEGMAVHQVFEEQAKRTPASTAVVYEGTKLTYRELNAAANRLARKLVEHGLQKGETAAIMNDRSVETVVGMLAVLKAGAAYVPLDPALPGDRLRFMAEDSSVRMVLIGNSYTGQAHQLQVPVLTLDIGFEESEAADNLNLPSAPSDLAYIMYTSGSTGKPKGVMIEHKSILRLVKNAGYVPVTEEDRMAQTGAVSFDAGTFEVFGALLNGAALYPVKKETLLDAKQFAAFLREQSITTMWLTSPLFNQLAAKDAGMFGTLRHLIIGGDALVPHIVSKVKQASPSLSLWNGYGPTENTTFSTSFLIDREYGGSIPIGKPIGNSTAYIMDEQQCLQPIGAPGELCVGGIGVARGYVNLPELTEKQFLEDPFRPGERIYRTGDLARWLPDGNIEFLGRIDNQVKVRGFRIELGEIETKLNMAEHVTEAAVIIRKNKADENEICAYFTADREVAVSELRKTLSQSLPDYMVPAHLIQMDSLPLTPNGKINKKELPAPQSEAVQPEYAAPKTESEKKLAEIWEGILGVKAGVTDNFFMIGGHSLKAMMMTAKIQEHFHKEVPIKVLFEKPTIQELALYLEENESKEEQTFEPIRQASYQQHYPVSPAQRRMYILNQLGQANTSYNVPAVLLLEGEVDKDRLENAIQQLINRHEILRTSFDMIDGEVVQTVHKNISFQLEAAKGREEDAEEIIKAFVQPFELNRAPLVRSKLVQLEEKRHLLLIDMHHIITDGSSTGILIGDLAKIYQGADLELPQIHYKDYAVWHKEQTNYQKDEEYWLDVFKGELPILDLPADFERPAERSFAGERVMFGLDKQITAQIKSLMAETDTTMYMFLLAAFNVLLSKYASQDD

Series [3] concerns the target T2, SrfB1. Put plainly: [14C] amino acid activation by holo-SrfB1 formed with Sfp. Type of series: biochemical. The conditions noted are these: 2 μM apo-SrfB1, 1.3 μM Sfp, 200 μM CoASH, FIG. 15. How it is done: The reaction was performed as follows. Apo-SrfB1 (2 μM) was incubated with 200 μM CoASH, 75 mM Tris.HCl pH 8.0, 10 mM MgCl2, 25 mM DTT and 1.3 μM Sfp for 15 min at 37° C. to generate holo-SrfB1. To the SrfB1-Sfp reaction mixture, unlabeled amino acid (valine or aspartic acid) was added to 90 μM final concentration. ATP was added to a final concentration of 2 mM, followed by 0.5 μCi [^14C]Val (281 Ci/mol) or [^14C]Asp (207 Ci/mol). The reaction (115 μL) was incubated for 15 min at 37° C., then stopped by the addition of 800 μL 10% TCA with 15 μL of a 25 mg/mL BSA solution as carrier. The precipitate was collected by centrifugation, washed with 10% TCA, dissolved in 150 μL Tris base, and then counted by liquid scintillation.
Target sequence in this assay (Q04747 92-1307): as above

The target of series [4] is T3, apo-ACP (Escherichia coli, UniProt P0A6A8+P24224). As to conditions: 50 μM apo-ACP, 1.8 μM ACPS, 210 μM [3H]CoA, 36 hour, 37° C., replicates.
T3 sequence (P0A6A8 2-78, one chain of several): as the sequence (P0A6A8 2-78) above
Another series relates to Streptomycete ACPs. Put plainly: modification of apo-form of Streptomycete ACPs. Type of series: biochemical.
Series [5] addresses T3, apo-ACP. As to conditions: for Km: steady-state kinetics, [3H]CoA radioassay.
Another series has as its system apo-Dcp. Put plainly: in vitro phosphopantetheinylation of D-Alanyl carrier protein. Type of series: biochemical, Lactobacillus casei. How it is done: In another example, varying concentrations of apo-Dcp were incubated with ACPS at 37° C. to determine extent of phosphopantetheinylation.
The assays were incubated overnight at 37° C.
The [^3H] holo-Dcp formed was quantitated by dividing dpm by specific activity of pantetheinyl moiety of CoA which is equal to 4.83×10^14 dmp/mol.

“And” between values parts separate entries of the source, which are not always exact repeats. Equal entries are not always repeated. “Also recorded” adds a separate entry of the source. Where two headings read alike, the source gives them in different places.

Chain of His6-PCP (peptidyl carrier protein domain of TycA) (P09095 528-602): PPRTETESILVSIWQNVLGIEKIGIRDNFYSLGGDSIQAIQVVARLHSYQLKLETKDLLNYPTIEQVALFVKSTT
T1 sequence (P11454 whole entry): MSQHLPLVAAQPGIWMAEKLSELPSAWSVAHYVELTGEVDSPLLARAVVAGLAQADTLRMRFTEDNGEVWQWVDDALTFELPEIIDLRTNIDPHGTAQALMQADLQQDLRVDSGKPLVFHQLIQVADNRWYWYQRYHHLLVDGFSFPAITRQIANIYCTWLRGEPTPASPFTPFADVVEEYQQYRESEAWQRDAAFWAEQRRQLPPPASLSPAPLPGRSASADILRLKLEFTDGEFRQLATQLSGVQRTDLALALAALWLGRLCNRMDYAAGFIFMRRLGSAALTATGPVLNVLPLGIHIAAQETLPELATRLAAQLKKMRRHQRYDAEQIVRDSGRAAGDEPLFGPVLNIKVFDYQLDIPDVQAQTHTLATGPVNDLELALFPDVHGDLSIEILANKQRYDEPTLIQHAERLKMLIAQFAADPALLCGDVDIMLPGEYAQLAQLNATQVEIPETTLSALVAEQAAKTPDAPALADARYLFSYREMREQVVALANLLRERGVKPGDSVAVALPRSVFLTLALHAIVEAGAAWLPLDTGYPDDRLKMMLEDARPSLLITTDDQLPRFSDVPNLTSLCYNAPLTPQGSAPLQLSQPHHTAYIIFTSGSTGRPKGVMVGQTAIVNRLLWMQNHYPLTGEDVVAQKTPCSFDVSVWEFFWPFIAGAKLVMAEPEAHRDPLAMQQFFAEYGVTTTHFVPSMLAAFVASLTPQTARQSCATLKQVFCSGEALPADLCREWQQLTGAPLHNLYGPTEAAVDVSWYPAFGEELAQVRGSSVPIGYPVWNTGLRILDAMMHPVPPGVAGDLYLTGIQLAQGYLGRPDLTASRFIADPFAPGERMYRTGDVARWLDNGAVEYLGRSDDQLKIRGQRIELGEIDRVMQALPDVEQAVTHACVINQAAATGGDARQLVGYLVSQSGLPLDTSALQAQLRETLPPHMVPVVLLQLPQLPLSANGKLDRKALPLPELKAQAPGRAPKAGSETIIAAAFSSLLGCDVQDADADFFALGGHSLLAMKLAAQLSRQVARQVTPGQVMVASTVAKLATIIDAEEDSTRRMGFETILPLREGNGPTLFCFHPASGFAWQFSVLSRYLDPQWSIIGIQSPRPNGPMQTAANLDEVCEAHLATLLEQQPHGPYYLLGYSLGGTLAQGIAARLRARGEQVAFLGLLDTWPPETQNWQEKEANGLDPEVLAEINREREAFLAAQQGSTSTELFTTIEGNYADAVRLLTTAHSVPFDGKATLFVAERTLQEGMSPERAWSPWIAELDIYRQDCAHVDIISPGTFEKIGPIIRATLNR

B1: o195: E. coli ORF protein of unknown function, homologous to ACPS, shown to phosphopantetheinylate substrates (protein)
chain: MYRIVLGKVSTLSAAPLPPGLREQAPQGPRRERWLAGRALLSHTLSPLPEIIYGEQGKPAFAPEMPLWFNLSHSGDDIALLLSDEGEVGCDIEVIRPRANWRWLANAVFSLGEHAEMDAVHPDQQLEMFWRIWTRKEAIVKQRGGSAWQIVSVDSTYHSSLSVSHCQLENLSLAICTPTPFTLTADSVQWIDSVN
Consider B1, for which the “phosphopantetheinylation of His6-PCP” value in series [1] is “capable of transferring phosphopantetheine groups”. Further, the “phosphopantetheinylation of ACP” value with E. coli FAS apo-ACP is “capable of transferring phosphopantetheine groups”. For the same molecule, the “time course of modification of EntF” value in the series with EntF was “almost no modification”.

B2: EntD: E. coli protein (23.6 kD) involved in enterobactin biosynthesis, phosphopantetheinyl transferase (protein)
chain: SRQPIGIDIEEIFSVQTARELTDNIITPAEHERLADCGLAFSLALTLAFSAKESAFKASEIQTDAGFLDYQIISWNKQQVIIHRENEMFAVHWQIKEKIVITLCQHD
As for B2, the “phosphopantetheinylation of His6-PCP” value in series [1] is “capable of transferring phosphopantetheine groups”. Moreover, the “phosphopantetheinylation of ACP” value with E. coli FAS apo-ACP is given as “capable of transferring phosphopantetheine groups”. Further, in the series with EntF, the “time course of modification of EntF” value was “modified effectively” and the “phosphopantetheinylation of EntF” value is “capable of phosphopantetheinylating”.

B3: Sfp: B. subtilis protein (26.1 kD) involved in surfactin biosynthesis, shown to be a phosphopantetheinyl transferase (protein)
chain: VIGAFDSQPIGIDIEKTKPISLEIAKRFFSKTEYSDLLAKDKDEQTDYFYHLWSMKESFIKQEGKGLSLPLDSFSVRLHQDGQVSIELPDSHSPCYIKTYEVDPGYKMAVCAAHPDFPEDITMVSYEELL
B3: in the series with SrfB1 [2], the “phosphopantetheinylation of SrfB1” value was “capable of phosphopantetheinylating; also recorded: efficiently catalyzes modification”. Also, the “phosphopantetheinylation of PCP at different substrate concentrations” value in [1] (13 nM Sfp, 15 minute reaction, FIG. 13) is listed as “capable of phosphopantetheinylating a substrate, such as PCP, in a wide range of concentrations”. The “phosphopantetheinylation of His6-PCP” value in [1] is “capable of transferring phosphopantetheine groups; also recorded: efficiently catalyzes modification”. In the series with EntF, the “phosphopantetheinylation of EntF” value was “can catalyze modification”. Moreover, the “increase of [14C]-L-valine-holo-SrfB1 covalent complex following incubation with Sfp” value with SrfB1 [3] was “about 14 fold”.

B4: ACPS: recombinant E. coli holo-acyl carrier protein synthase, 14 kDa dpj gene product overproduced in E. coli BL21(DE3)pDPJ (protein)
chain: MAILGLGTDIVEIARIEAVIARSGDRLARRVLSDNEWAIWKTHHQPVRFLAKRFAVKEAAAKAFGTGIRNGLAFNQFEVFNDELGKPRLRLWGEALKLAEKLGVANMHVTLADERHYACATVIIES
Consider B4, for which, in the series with apo-ACP [4], the “radioactivity incorporated into the protein fraction, ACP + ACPS” value was 2.21 × 10^6 (±.63%) and 2.13 × 10^6 (±.65%) and 2.20 × 10^6 (±.64%). In addition, the “modification of apo-form of Streptomycete ACPs (frenolicin, granaticin, oxytetracycline, tetracenomycin)” value in the series on Streptomycete ACPs is “modifies the apo-form”. In the series with E. coli FAS apo-ACP (FIG. 14B), the “time course of modification of apo-ACP” value is “almost exclusive modification”. In the series with apo-ACP [5], the “substrate inhibition at apo-ACP concentrations” value was “greater than 2 μM”. In addition, the specific activity with apo-ACP [5] (purification from E. coli BL21(DE3)pDPJ, fraction Crude extract) is on record as 200 mU · mg^−1; in the series with apo-ACP [5] (purification from E. coli BL21(DE3)pDPJ, fraction DE-52) it was 250 mU · mg^−1; with apo-ACP [5] (purification from E. coli BL21(DE3)pDPJ, fraction SP-Sepharose), 320 mU · mg^−1; with apo-ACP [5] (purified protein, >95% purity), 320 mU/mg. Further, the Km – broadly, the concentration of substrate that gives half-maximal velocity – with apo-ACP [5] (read-out: Km value for CoA) was 50 µM; with apo-ACP [5] (read-out: Km value for apo-ACP (upper limit)) it was at most 1 µM. For the same molecule, the apparent kcat value result with apo-ACP [5] (saturating CoA and 50 μM apo-ACP) is recorded as “about 10 min^−1”. The “time course of modification of EntF” value with EntF is listed as “almost no modification”. Besides, the “phosphopantetheinylation of Dcp” value in the series on apo-Dcp is listed as “capable of phosphopantetheinylating Dcp”. Besides, the “radioactivity incorporated into the protein fraction, Dcp + ACPS” value in the series on apo-Dcp (40 μM apo-Dcp, 1.8 μM ACPS, 210 μM [3H]CoA, 36 hour, 37° C., replicates) is 1.04 × 10^6 (±0.93%) and 1.00 × 10^6 (±0.77%) and 0.98 × 10^6 (±0.95%). The “amount of holo-Dcp formed versus amount of apo-Dcp” value in the series with apo-Dcp (varying apo-Dcp, 1.8 μM ACPS, overnight at 37° C., FIG. 4) is given as “increases linearly”.
